Reference: the supplement of paper PMC9112550, “Optimization of the antimicrobial peptide Bac7 by deep mutational scanning” (BMC Biology, 2022)

What follows are sequences tested on Escherichia coli TOP10 (assay: shrunken log2 fold change of peptide-encoding DNA abundance (4.5 h post-induction vs induction); higher = less antimicrobial activity (less host growth inhibition)). Details: time post-induction: 4.5 h; library: site-saturation at positions 5, 18, 19, 20.
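Also: peptides expressed intracellularly from a pBAD plasmid library in pooled LB shake-flask culture, induced with 0.3% L-arabinose, DNA abundance read by NGS, three biological replicates, DESeq2 with apeglm shrinkage.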

| Sequence | shrunken log2 fold change |
| --- | --- |
| RRIRSRPPRLPRPRPRPWAFPRP | -0.072 |
| RRIRLRPPRLPRPRPRPLAVPRP | 0.139 |
| RRIRDRPPRLPRPRPRPLFPPRP | -0.116 |
| RRIRQRPPRLPRPRPRPMFTPRP | -0.31 |
| RRIRKRPPRLPRPRPRPTLTPRP | 0.283 |
| RRIRTRPPRLPRPRPRPVWCPRP | -0.113 |
| RRIRERPPRLPRPRPRPPRMPRP | 0.027 |
| RRIRTRPPRLPRPRPRPHDIPRP | 2.43 |
| RRIRYRPPRLPRPRPRPHIIPRP | -0.501 |
| RRIRPRPPRLPRPRPRPARWPRP | 0.44 |
| RRIRKRPPRLPRPRPRPCNHPRP | -0.16 |
| RRIRWRPPRLPRPRPRPWEEPRP | 0.0688 |
| RRIRHRPPRLPRPRPRPMTTPRP | -0.125 |
| RRIRERPPRLPRPRPRPLKIPRP | -0.402 |
| RRIRFRPPRLPRPRPRPEFDPRP | -0.193 |
| RRIRTRPPRLPRPRPRPSCIPRP | -0.44 |
| RRIRQRPPRLPRPRPRPHAPPRP | -0.0421 |
| RRIRMRPPRLPRPRPRPVERPRP | 0.015 |
| RRIRYRPPRLPRPRPRPIKTPRP | -0.154 |
| RRIRVRPPRLPRPRPRPPRYPRP | 0.317 |
| RRIRSRPPRLPRPRPRPVAQPRP | 0.101 |
| RRIRVRPPRLPRPRPRPPYNPRP | -0.1 |
| RRIRPRPPRLPRPRPRPFDQPRP | -0.295 |
| RRIRIRPPRLPRPRPRPRWHPRP | 0.139 |
| RRIRSRPPRLPRPRPRPGKLPRP | -0.0662 |

| Sequence | shrunken log2 fold change |
| --- | --- |
| RRIRSRPPRLPRPRPRPRPEPRP | 0.507 |
| RRIRRRPPRLPRPRPRPQFIPRP | -0.387 |
| RRIRERPPRLPRPRPRPTTSPRP | -0.147 |
| RRIRVRPPRLPRPRPRPPGPPRP | 0.533 |
| RRIRIRPPRLPRPRPRPRNDPRP | -0.543 |
| RRIRGRPPRLPRPRPRPMRYPRP | 0.347 |
| RRIRKRPPRLPRPRPRPMIHPRP | -0.00347 |
| RRIRMRPPRLPRPRPRPAWSPRP | 0.44 |
| RRIRLRPPRLPRPRPRPGEAPRP | 0.214 |
| RRIRDRPPRLPRPRPRPDFGPRP | -0.0319 |
| RRIRDRPPRLPRPRPRPMVNPRP | -0.0813 |
| RRIRCRPPRLPRPRPRPHANPRP | -0.0108 |
| RRIRWRPPRLPRPRPRPMRWPRP | 0.648 |
| RRIRYRPPRLPRPRPRPMRMPRP | 0.126 |
| RRIRPRPPRLPRPRPRPRMKPRP | -0.285 |
| RRIRYRPPRLPRPRPRPWQLPRP | -0.647 |
| RRIRMRPPRLPRPRPRPRRLPRP | 0.817 |
| RRIRDRPPRLPRPRPRPDLGPRP | 0.829 |
| RRIRQRPPRLPRPRPRPRCAPRP | 0.385 |
| RRIRDRPPRLPRPRPRPCPNPRP | -0.02 |
| RRIRRRPPRLPRPRPRPQQIPRP | -0.0299 |
| RRIRVRPPRLPRPRPRPEILPRP | -0.0486 |
| RRIRLRPPRLPRPRPRPQWRPRP | 0.087 |
| RRIRPRPPRLPRPRPRPDIAPRP | -0.0378 |
| RRIRARPPRLPRPRPRPFNCPRP | -0.357 |

| Sequence | shrunken log2 fold change |
| --- | --- |
| RRIRVRPPRLPRPRPRPIESPRP | -0.0725 |
| RRIRRRPPRLPRPRPRPCEPPRP | -0.0751 |
| RRIRYRPPRLPRPRPRPCYRPRP | -0.172 |
| RRIRYRPPRLPRPRPRPTLPPRP | -0.135 |
| RRIRERPPRLPRPRPRPDKIPRP | -0.0617 |
| RRIRCRPPRLPRPRPRPTCFPRP | 0.152 |
| RRIRMRPPRLPRPRPRPMNYPRP | -0.082 |
| RRIRLRPPRLPRPRPRPSVHPRP | -0.61 |
| RRIRMRPPRLPRPRPRPPDCPRP | 0.865 |
| RRIRGRPPRLPRPRPRPIWRPRP | 0.744 |
| RRIRFRPPRLPRPRPRPAICPRP | 0.00851 |
| RRIRKRPPRLPRPRPRPMMCPRP | 0.0781 |
| RRIRRRPPRLPRPRPRPNNYPRP | -0.378 |
| RRIRSRPPRLPRPRPRPWAYPRP | -0.107 |
| RRIRQRPPRLPRPRPRPNAHPRP | -0.18 |
| RRIRHRPPRLPRPRPRPREIPRP | 0.0735 |
| RRIRLRPPRLPRPRPRPTPEPRP | 0.181 |
| RRIRERPPRLPRPRPRPDLVPRP | -0.022 |
| RRIRGRPPRLPRPRPRPDGHPRP | 0.471 |
| RRIRYRPPRLPRPRPRPQARPRP | -0.0547 |
| RRIRPRPPRLPRPRPRPGFSPRP | -0.0307 |
| RRIRTRPPRLPRPRPRPTKNPRP | -0.083 |
| RRIRGRPPRLPRPRPRPTYIPRP | 0.111 |
| RRIRLRPPRLPRPRPRPWMLPRP | -0.0153 |
| RRIRCRPPRLPRPRPRPGLVPRP | 0.0569 |

| Sequence | shrunken log2 fold change |
| --- | --- |
| RRIRWRPPRLPRPRPRPPPCPRP | 0.638 |
| RRIRIRPPRLPRPRPRPTRYPRP | -0.328 |
| RRIRCRPPRLPRPRPRPPYDPRP | -0.0699 |
| RRIRKRPPRLPRPRPRPMREPRP | 1.4 |
| RRIRDRPPRLPRPRPRPEAGPRP | 0.67 |
| RRIRQRPPRLPRPRPRPIHRPRP | -0.0654 |
| RRIRNRPPRLPRPRPRPCICPRP | -0.33 |
| RRIRARPPRLPRPRPRPFDGPRP | -0.22 |
| RRIRHRPPRLPRPRPRPCHKPRP | -0.0933 |
| RRIRERPPRLPRPRPRPHPCPRP | -0.0414 |
| RRIRERPPRLPRPRPRPTLRPRP | 0.383 |
| RRIRIRPPRLPRPRPRPRMHPRP | -0.0356 |
| RRIRERPPRLPRPRPRPVINPRP | -0.217 |
| RRIRRRPPRLPRPRPRPTMPPRP | 0.438 |
| RRIRKRPPRLPRPRPRPRRRPRP | 1.27 |
| RRIRIRPPRLPRPRPRPDSFPRP | 0.0771 |
| RRIRHRPPRLPRPRPRPCRLPRP | 0.0253 |
| RRIRLRPPRLPRPRPRPDYDPRP | -0.496 |
| RRIRRRPPRLPRPRPRPGVQPRP | -0.00257 |
| RRIRLRPPRLPRPRPRPYARPRP | -0.44 |
| RRIRDRPPRLPRPRPRPRDEPRP | 0.12 |
| RRIRMRPPRLPRPRPRPEVIPRP | 0.0213 |
| RRIRQRPPRLPRPRPRPWWNPRP | -0.123 |
| RRIRNRPPRLPRPRPRPDIRPRP | -0.01 |
| RRIRVRPPRLPRPRPRPWGLPRP | -0.159 |

| Sequence | shrunken log2 fold change |
| --- | --- |
| RRIRLRPPRLPRPRPRPCINPRP | -0.209 |
| RRIRCRPPRLPRPRPRPKKKPRP | -0.0938 |
| RRIRYRPPRLPRPRPRPEDLPRP | -0.00674 |
| RRIRWRPPRLPRPRPRPWLKPRP | 0.0275 |
| RRIRIRPPRLPRPRPRPHIYPRP | 0.13 |
| RRIRIRPPRLPRPRPRPMLAPRP | 0.0524 |
| RRIRGRPPRLPRPRPRPESAPRP | 1.67 |
| RRIRPRPPRLPRPRPRPSKWPRP | -0.242 |
| RRIRIRPPRLPRPRPRPHSRPRP | -0.197 |
| RRIRCRPPRLPRPRPRPKERPRP | 0.238 |
| RRIRWRPPRLPRPRPRPERCPRP | 0.449 |
| RRIRDRPPRLPRPRPRPFGPPRP | -0.0754 |
| RRIRYRPPRLPRPRPRPDLLPRP | -0.0601 |
| RRIRCRPPRLPRPRPRPRQSPRP | 0.139 |
| RRIRCRPPRLPRPRPRPPSYPRP | -0.457 |
| RRIRRRPPRLPRPRPRPQLGPRP | 0.0467 |
| RRIRYRPPRLPRPRPRPRCCPRP | -0.233 |
| RRIRERPPRLPRPRPRPFPYPRP | -0.256 |
| RRIRCRPPRLPRPRPRPYDMPRP | -0.726 |
| RRIRWRPPRLPRPRPRPHGGPRP | -0.0606 |
| RRIRLRPPRLPRPRPRPVEWPRP | -0.228 |
| RRIRPRPPRLPRPRPRPMPEPRP | -0.0242 |
| RRIRARPPRLPRPRPRPHWCPRP | 0.0773 |
| RRIRPRPPRLPRPRPRPGNFPRP | -0.25 |
| RRIRHRPPRLPRPRPRPFRAPRP | -0.211 |

| Sequence | shrunken log2 fold change |
| --- | --- |
| RRIRYRPPRLPRPRPRPKGDPRP | -0.0902 |
| RRIRQRPPRLPRPRPRPFSGPRP | -0.0802 |
| RRIRRRPPRLPRPRPRPSNMPRP | -0.311 |
| RRIRSRPPRLPRPRPRPFEAPRP | 0.14 |
| RRIRNRPPRLPRPRPRPENQPRP | 0.216 |
| RRIRHRPPRLPRPRPRPAIRPRP | -0.000964 |
| RRIRSRPPRLPRPRPRPNYMPRP | -0.756 |
| RRIRGRPPRLPRPRPRPFGHPRP | -0.164 |
| RRIRSRPPRLPRPRPRPPYSPRP | -0.379 |
| RRIRWRPPRLPRPRPRPEWRPRP | 0.439 |
| RRIRARPPRLPRPRPRPEEMPRP | 1.73 |
| RRIRYRPPRLPRPRPRPVSFPRP | -0.717 |
| RRIRPRPPRLPRPRPRPPYCPRP | -0.12 |
| RRIRQRPPRLPRPRPRPTCYPRP | -0.309 |
| RRIRIRPPRLPRPRPRPDMCPRP | 0.00741 |
| RRIRWRPPRLPRPRPRPAHPPRP | 0.304 |
| RRIRIRPPRLPRPRPRPPRYPRP | -0.217 |
| RRIRGRPPRLPRPRPRPRIPPRP | 0.424 |
| RRIRPRPPRLPRPRPRPTNRPRP | -0.104 |
| RRIRPRPPRLPRPRPRPWAPPRP | 0.153 |
| RRIRIRPPRLPRPRPRPKECPRP | 0.00902 |
| RRIRERPPRLPRPRPRPIWWPRP | -0.0447 |
| RRIRDRPPRLPRPRPRPSLYPRP | 0.266 |
| RRIRRRPPRLPRPRPRPYTYPRP | 0.0668 |
| RRIRWRPPRLPRPRPRPLNQPRP | -0.0739 |
